Measurements published in PMC4173783.

How the values were obtained:
[1] = molecular target: recombinant GpA extracellular domain fused to Fc and His tag (rGpA-Fc-His) (human) (UniProt P02724); experiment: AUC
[2] = molecular target: Plasmodium falciparum EBA-175 region II (P. falciparum)
[3] = molecular target: recombinant GpA extracellular domain fused to Fc and His tag (rGpA-Fc-His) (human) (UniProt P02724); experiment: SDS-PAGE without and with reducing agent

recombinant GpA extracellular domain fused to Fc and His tag (rGpA-Fc-His) (from UniProt P02724 23-84) (Fc fusion)
stoichiometry N [1]: 2
parasite growth with 30 µM rGpA, strains 3D7, Dd2 and FVO/FCR1 [2]: 50%
stoichiometry N [3]: 2
